Non-standard residues stand in square brackets, D forms with d. No end group written: not given here. Phe(3-F) = N[C@@H](Cc1cccc(F)c1)C(=O)O; Phe(3-Me) = Cc1cccc(C[C@H](N)C(=O)O)c1; Cha = N[C@@H](CC1CCCCC1)C(=O)O; 4Amb = NCc1ccc(C(=O)O)cc1; Aib = CC(C)(N)C(=O)O
Experiments:
human Y2 receptor [1] = molecular target: T1, human Y2 receptor (human, UniProt P49146 1-381); experiment: cell-based or functional assay
T1 sequence (looked up): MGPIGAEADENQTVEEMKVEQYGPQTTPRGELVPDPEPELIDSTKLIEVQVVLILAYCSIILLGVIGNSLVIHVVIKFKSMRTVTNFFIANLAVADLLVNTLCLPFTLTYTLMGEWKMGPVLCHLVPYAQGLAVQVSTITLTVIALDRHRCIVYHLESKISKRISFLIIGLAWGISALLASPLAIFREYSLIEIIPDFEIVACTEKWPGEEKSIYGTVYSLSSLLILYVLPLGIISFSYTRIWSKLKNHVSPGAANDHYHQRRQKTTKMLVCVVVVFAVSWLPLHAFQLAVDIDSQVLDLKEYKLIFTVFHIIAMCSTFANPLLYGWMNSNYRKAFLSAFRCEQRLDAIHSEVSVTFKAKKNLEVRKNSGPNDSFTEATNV

human Y2 receptor [2] = molecular target: T1, human Y2 receptor; experiment: RBA: [125I]-PYY displacement, hY2R/CHO membranes
How it was run: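 Bound radioligand was collected by filtration on PEI-treated GF/C filters, washed with Tris/MgCl₂/NaCl/CHAPS buffer pH 7.4, and counted by scintillation; IC₅₀ values were calculated.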

B1: 4-Aminomethylbenzoyl-[Ala26, Ile28,31, Phe30]-PYY(25-36) (peptide)
peptide: [4Amb]RAYINFITRQRY-NH2
modifications: N-terminus assumed
SMILES: CC[C@H](C)[C@H](NC(=O)[C@H](Cc1ccc(O)cc1)NC(=O)[C@H](C)NC(=O)[C@H](CCCNC(=N)N)NC(=O)c1ccc(CN)cc1)C(=O)N[C@@H](CC(N)=O)C(=O)N[C@@H](Cc1ccccc1)C(=O)N[C@H](C(=O)N[C@H](C(=O)N[C@@H](CCCNC(=N)N)C(=O)N[C@@H](CCC(N)=O)C(=O)N[C@@H](CCCNC(=N)N)C(=O)N[C@@H](Cc1ccc(O)cc1)C(N)=O)[C@@H](C)O)[C@@H](C)CC
notes: also called compound No. 54
Human Y2 receptor [1]
  GBA EC50 Ratio (vs PYY(3-36)), [35S]GTPγS: 3.4 ratio
Human Y2 receptor [2]
  IC50 Ratio (vs PYY(3-36)): 5.7 ratio

B2: 4-Aminomethylbenzoyl-[Ala26, Ile28,31, Gly30]-PYY(25-36) (peptide)
peptide: [4Amb]RAYINGITRQRY-NH2
modifications: N-terminus assumed
SMILES: CC[C@H](C)[C@H](NC(=O)CNC(=O)[C@H](CC(N)=O)NC(=O)[C@@H](NC(=O)[C@H](Cc1ccc(O)cc1)NC(=O)[C@H](C)NC(=O)[C@H](CCCNC(=N)N)NC(=O)c1ccc(CN)cc1)[C@@H](C)CC)C(=O)N[C@H](C(=O)N[C@@H](CCCNC(=N)N)C(=O)N[C@@H](CCC(N)=O)C(=O)N[C@@H](CCCNC(=N)N)C(=O)N[C@@H](Cc1ccc(O)cc1)C(N)=O)[C@@H](C)O
notes: also called compound No. 45
Human Y2 receptor [1]
  GBA EC50 Ratio (vs PYY(3-36)), [35S]GTPγS: 12 ratio
Human Y2 receptor [2]
  IC50 Ratio (vs PYY(3-36)): 21 ratio

B3: 4-Aminomethylbenzoyl-[Ala26, Ile28,31, Ser32]-PYY(25-36) (peptide)
peptide: [4Amb]RAYINLISRQRY-NH2
modifications: N-terminus assumed
SMILES: CC[C@H](C)[C@H](NC(=O)[C@H](Cc1ccc(O)cc1)NC(=O)[C@H](C)NC(=O)[C@H](CCCNC(=N)N)NC(=O)c1ccc(CN)cc1)C(=O)N[C@@H](CC(N)=O)C(=O)N[C@@H](CC(C)C)C(=O)N[C@H](C(=O)N[C@@H](CO)C(=O)N[C@@H](CCCNC(=N)N)C(=O)N[C@@H](CCC(N)=O)C(=O)N[C@@H](CCCNC(=N)N)C(=O)N[C@@H](Cc1ccc(O)cc1)C(N)=O)[C@@H](C)CC
notes: also called compound No. 60
Human Y2 receptor [1]
  GBA EC50 Ratio (vs PYY(3-36)), [35S]GTPγS: 44 ratio
Human Y2 receptor [2]
  IC50 Ratio (vs PYY(3-36)): 180 ratio

B4: 4-Aminomethylbenzoyl-[Ala26,31, Ile28]-PYY(25-36) (peptide)
peptide: [4Amb]RAYINLATRQRY-NH2
modifications: N-terminus assumed
SMILES: CC[C@H](C)[C@H](NC(=O)[C@H](Cc1ccc(O)cc1)NC(=O)[C@H](C)NC(=O)[C@H](CCCNC(=N)N)NC(=O)c1ccc(CN)cc1)C(=O)N[C@@H](CC(N)=O)C(=O)N[C@@H](CC(C)C)C(=O)N[C@@H](C)C(=O)N[C@H](C(=O)N[C@@H](CCCNC(=N)N)C(=O)N[C@@H](CCC(N)=O)C(=O)N[C@@H](CCCNC(=N)N)C(=O)N[C@@H](Cc1ccc(O)cc1)C(N)=O)[C@@H](C)O
notes: also called compound No. 33
Human Y2 receptor [1]
  GBA EC50 Ratio (vs PYY(3-36)), [35S]GTPγS: 17 ratio
Human Y2 receptor [2]
  IC50 Ratio (vs PYY(3-36)): 23 ratio

B5: 4-Aminomethylbenzoyl-[Ala26, Gln27, Ile28,31]-PYY(25-36) (peptide)
peptide: [4Amb]RAQINLITRQRY-NH2
modifications: N-terminus assumed
SMILES: CC[C@H](C)[C@H](NC(=O)[C@H](CCC(N)=O)NC(=O)[C@H](C)NC(=O)[C@H](CCCNC(=N)N)NC(=O)c1ccc(CN)cc1)C(=O)N[C@@H](CC(N)=O)C(=O)N[C@@H](CC(C)C)C(=O)N[C@H](C(=O)N[C@H](C(=O)N[C@@H](CCCNC(=N)N)C(=O)N[C@@H](CCC(N)=O)C(=O)N[C@@H](CCCNC(=N)N)C(=O)N[C@@H](Cc1ccc(O)cc1)C(N)=O)[C@@H](C)O)[C@@H](C)CC
notes: also called compound No. 30
Human Y2 receptor [1]
  GBA EC50 Ratio (vs PYY(3-36)), [35S]GTPγS: 14 ratio
Human Y2 receptor [2]
  IC50 Ratio (vs PYY(3-36)): 25 ratio

B6: Ac-[D-Pro24, Cha27,28, Aib31, Phe(3Me)36]-PYY(23-36) (peptide)
peptide: Ac-S[dP]RH[Cha][Cha]NL[Aib]TRQR[Phe(3-Me)]-NH2
SMILES: CC(=O)N[C@@H](CO)C(=O)N1CCC[C@@H]1C(=O)N[C@@H](CCCNC(=N)N)C(=O)N[C@@H](Cc1c[nH]cn1)C(=O)N[C@@H](CC1CCCCC1)C(=O)N[C@@H](CC1CCCCC1)C(=O)N[C@@H](CC(N)=O)C(=O)N[C@@H](CC(C)C)C(=O)NC(C)(C)C(=O)N[C@H](C(=O)N[C@@H](CCCNC(=N)N)C(=O)N[C@@H](CCC(N)=O)C(=O)N[C@@H](CCCNC(=N)N)C(=O)N[C@@H](Cc1cccc(C)c1)C(N)=O)[C@@H](C)O
notes: also called compound No. 197
Human Y2 receptor [1]
  GBA EC50 Ratio (vs PYY(3-36)), [35S]GTPγS: 1.9 ratio
Human Y2 receptor [2]
  IC50 Ratio (vs PYY(3-36)): 1.3 ratio

B7: Ac-[D-Pro24, Cha27,28, Aib31, Phe(3F)36]-PYY(23-36) (peptide)
peptide: Ac-S[dP]RH[Cha][Cha]NL[Aib]TRQR[Phe(3-F)]-NH2
SMILES: CC(=O)N[C@@H](CO)C(=O)N1CCC[C@@H]1C(=O)N[C@@H](CCCNC(=N)N)C(=O)N[C@@H](Cc1c[nH]cn1)C(=O)N[C@@H](CC1CCCCC1)C(=O)N[C@@H](CC1CCCCC1)C(=O)N[C@@H](CC(N)=O)C(=O)N[C@@H](CC(C)C)C(=O)NC(C)(C)C(=O)N[C@H](C(=O)N[C@@H](CCCNC(=N)N)C(=O)N[C@@H](CCC(N)=O)C(=O)N[C@@H](CCCNC(=N)N)C(=O)N[C@@H](Cc1cccc(F)c1)C(N)=O)[C@@H](C)O
notes: also called compound No. 195
Human Y2 receptor [1]
  GBA EC50 Ratio (vs PYY(3-36)), [35S]GTPγS: 1.5 ratio
Human Y2 receptor [2]
  IC50 Ratio (vs PYY(3-36)): 2.1 ratio

Source: US20120172293A1 (Takeda / Millennium, published 2012)
